Reference: publication PMC10413161

B1: human complement C1r, zymogen form (enzyme)
chain: SIPIPQKLFGEVTSPLFPKPYPNNFETTTVITVPTGYRVKLVFQQFDLEPSEGCFYDYVKISADKKSLGRFCGQLGSPLGNPPGKKEFMSQGNKMLLTFHTDFSNEENGTIMFYKGFLAYYQAVDLDECASRSKSGEEDPQPQCQHLCHNYVGGYFCSCRPGYELQEDTHSCQAECSSELYTEASGYISSLEYPRSYPPDLRCNYSIRVERGLTLHLKFLEPFDIDDHQQVHCPYDQLQIYANGKNIGEFCGKQRPPDLDTSSNAVDLLFFTDESGDSRGWKLRYTTEIIKCPQPKTLDEFTIIQNLQPQYQFRDYFIATCKQGYQLIEGNQVLHSFTAVCQDDGTWHRAMPRCKIKDCGQPRNLPNGDFRYTTTMGVNTYKARIQYYCHEPYYKMQTRAGSRESEQGVYTCTAQGIWKNEQKGEKIPRCLPVCGKPVNPVEQRQRIIGGQKAKMGNFPWQVFTNIHGRGGGALLGDRWILTAAHTLYPKEHEAQSNASLDVFLGHTNVEELMKLGNHPIRRVSVHPDYRQDESYNFEGDIALLELENSVTLGPNLLPICLPDNDTFYDLGLMGYVSGFGVMEEKIAHDLRFVRLPVANPQACENWLRGKNRMDVFSQNMFCAGHPSLKQDACQGDSGGVFAVRDPNTDRWVATGIVSWGIGCSRGYGFYTKVLNYVDWIKKEMEEED
B2: human complement C1r, activated form (enzyme)
chain: B1 chain

Legend:
[1] = biological target: human complement C1r, zymogen form (human) (UniProt P00736)
[2] = biological target: Borrelia hermsii strain HS1 FbpC C-terminal domain, residues 212-374, R248A (Borrelia hermsii strain HS1); assay: SPR; FbpC-C, FbpC-C R248A or FbpC-C H252A immobilised by amine coupling on a CMD200 chip (1138.2, 975.2, 1082 RU); zymogen or active C1r injected, single-cycle five-fold dilution series 0.16 to 100 nM; Biacore T200, 25 °C, 30 μl/min; HBS-T (10 mM Hepes pH 7.3, 140 mM NaCl, 0.005% Tween 20) with 5 mM CaCl2; kinetic fits, triplicate
[3] = biological target: Borrelia hermsii strain HS1 FbpC C-terminal domain, residues 212-374 (Borrelia hermsii strain HS1); assay: as above
[4] = biological target: Borrelia hermsii strain HS1 FbpC C-terminal domain, residues 212-374, H252A (Borrelia hermsii strain HS1); assay: as above

| Molecule | CP hemolysis of presensitized sheep erythrocytes (2% normal human serum), IC50 [1] | CP-specific complement ELISA (C4b deposition, 2% normal human serum), IC50 [1] | Kd [2] | koff [2] | kon [2] | Kd [3] | koff [3] | kon [3] | Kd [4] | koff [4] | kon [4] |
| --- | --- | --- | --- | --- | --- | --- | --- | --- | --- | --- | --- |
| Borrelia hermsii strain HS1 FbpC C-terminal domain, residues 212-374 (domain or fragment) | 320 nM | 8.6 nM | – | – | – | – | – | – | – | – | – |
| Borrelia hermsii strain HS1 FbpC C-terminal domain, residues 212-374, R248A (domain or fragment) | 1200 nM | 23 nM | – | – | – | – | – | – | – | – | – |
| Borrelia hermsii strain HS1 FbpC C-terminal domain, residues 212-374, H252A (domain or fragment) | – | 300 nM | – | – | – | – | – | – | – | – | – |
| B1 | – | – | 13 nM | 0.00063 s⁻¹ | 69000 M⁻¹ s⁻¹ | 1.2 nM | 5.4e-05 s⁻¹ | 44000 M⁻¹ s⁻¹ | – | – | – |
| B2 | – | – | 0.19 nM | 9.4e-06 s⁻¹ | 45000 M⁻¹ s⁻¹ | 0.3 nM | 1.4e-05 s⁻¹ | 48000 M⁻¹ s⁻¹ | 2.4 nM | 0.00012 s⁻¹ | 51000 M⁻¹ s⁻¹ |
